This note sets out measurements from PMC11533527, “A yeast two-hybrid system to obtain triple-helical ligands from combinatorial random peptide libraries” (The Journal of Biological Chemistry, 2024).

This series deals with the molecule itself. Kind of series: circular dichroism with thermal melting; peptides in PBS, heated at 95 °C, annealed at 4 °C overnight; [θ]225 followed from 4 to 85 °C; chains of one peptide forming a triple helix. In general terms: Circular dichroism is widely used to follow secondary structure.

B1: synthetic triple-helical peptide pepfreq (peptide)
chain: YPPGPPGPPGPPGPRGRRGLHGLPGPPGPPGPPGPPG
HELM: PEPTIDE1{Y.P.[Hyp].G.P.[Hyp].G.P.[Hyp].G.P.[Hyp].G.P.R.G.R.R.G.L.H.G.L.[Hyp].G.P.[Hyp].G.P.[Hyp].G.P.[Hyp].G.P.[Hyp].G.[am]}$$$$V2.0; N-terminus assumed
SMILES: CC(C)C[C@H](NC(=O)CNC(=O)[C@H](CCCNC(=N)N)NC(=O)[C@H](CCCNC(=N)N)NC(=O)CNC(=O)[C@H](CCCNC(=N)N)NC(=O)[C@@H]1CCCN1C(=O)CNC(=O)[C@@H]1C[C@@H](O)CN1C(=O)[C@@H]1CCCN1C(=O)CNC(=O)[C@@H]1C[C@@H](O)CN1C(=O)[C@@H]1CCCN1C(=O)CNC(=O)[C@@H]1C[C@@H](O)CN1C(=O)[C@@H]1CCCN1C(=O)CNC(=O)[C@@H]1C[C@@H](O)CN1C(=O)[C@@H]1CCCN1C(=O)[C@@H](N)Cc1ccc(O)cc1)C(=O)N[C@@H](Cc1c[nH]cn1)C(=O)NCC(=O)N[C@@H](CC(C)C)C(=O)N1C[C@H](O)C[C@H]1C(=O)NCC(=O)N1CCC[C@H]1C(=O)N1C[C@H](O)C[C@H]1C(=O)NCC(=O)N1CCC[C@H]1C(=O)N1C[C@H](O)C[C@H]1C(=O)NCC(=O)N1CCC[C@H]1C(=O)N1C[C@H](O)C[C@H]1C(=O)NCC(=O)N1CCC[C@H]1C(=O)N1C[C@H](O)C[C@H]1C(=O)NCC(N)=O
notes: guest made of the residue most frequent at each position in the selection; Triple helix by CD; annealed before use; source: synthetic peptide (Fmoc solid phase, RP-HPLC purified)
Turning to B1, the binding result was “binds”.

B2: synthetic triple-helical peptide pepα1(I)930-938: H-Tyr-(Pro-Hyp-Gly)4-Pro-Lys-Gly-His-Arg-Gly-Phe-Ser-Gly-Leu-Hyp-Gly-(Pro-Hyp-Gly)4-NH2 (peptide)
chain: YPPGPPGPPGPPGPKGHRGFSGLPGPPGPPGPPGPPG
modifications: 4-hydroxyproline (Hyp, written P in letters) at positions 3, 6, 9, 12, 24, 27, 30, 33, 36 of the chain (counted from the printed formula); C-terminal amide
notes: Tyr-(Pro-Hyp-Gly)4-Pro host; Hyp-Gly-(Pro-Hyp-Gly)4 host; Triple helix by CD; annealed before use; source: synthetic peptide (Fmoc solid phase, RP-HPLC purified)
Regarding B2, the binding result is on record as “binds”.

B3: synthetic triple-helical peptide pep11 (peptide)
chain: YPPGPPGPPGPPGPVGRRGLSGLPGPPGPPGPPGPPG
HELM: PEPTIDE1{Y.P.[Hyp].G.P.[Hyp].G.P.[Hyp].G.P.[Hyp].G.P.V.G.R.R.G.L.S.G.L.[Hyp].G.P.[Hyp].G.P.[Hyp].G.P.[Hyp].G.P.[Hyp].G.[am]}$$$$V2.0; N-terminus assumed
SMILES: CC(C)C[C@H](NC(=O)CNC(=O)[C@H](CCCNC(=N)N)NC(=O)[C@H](CCCNC(=N)N)NC(=O)CNC(=O)[C@@H](NC(=O)[C@@H]1CCCN1C(=O)CNC(=O)[C@@H]1C[C@@H](O)CN1C(=O)[C@@H]1CCCN1C(=O)CNC(=O)[C@@H]1C[C@@H](O)CN1C(=O)[C@@H]1CCCN1C(=O)CNC(=O)[C@@H]1C[C@@H](O)CN1C(=O)[C@@H]1CCCN1C(=O)CNC(=O)[C@@H]1C[C@@H](O)CN1C(=O)[C@@H]1CCCN1C(=O)[C@@H](N)Cc1ccc(O)cc1)C(C)C)C(=O)N[C@@H](CO)C(=O)NCC(=O)N[C@@H](CC(C)C)C(=O)N1C[C@H](O)C[C@H]1C(=O)NCC(=O)N1CCC[C@H]1C(=O)N1C[C@H](O)C[C@H]1C(=O)NCC(=O)N1CCC[C@H]1C(=O)N1C[C@H](O)C[C@H]1C(=O)NCC(=O)N1CCC[C@H]1C(=O)N1C[C@H](O)C[C@H]1C(=O)NCC(=O)N1CCC[C@H]1C(=O)N1C[C@H](O)C[C@H]1C(=O)NCC(N)=O
notes: Triple helix by CD; annealed before use; source: synthetic peptide (Fmoc solid phase, RP-HPLC purified)
Consider B3, for which the binding result was “binds”.

B4: synthetic triple-helical peptide pep7 (peptide)
chain: YPPGPPGPPGPPGPKGRRGFHGLPGPPGPPGPPGPPG
HELM: PEPTIDE1{Y.P.[Hyp].G.P.[Hyp].G.P.[Hyp].G.P.[Hyp].G.P.K.G.R.R.G.F.H.G.L.[Hyp].G.P.[Hyp].G.P.[Hyp].G.P.[Hyp].G.P.[Hyp].G.[am]}$$$$V2.0; N-terminus assumed
SMILES: CC(C)C[C@H](NC(=O)CNC(=O)[C@H](Cc1c[nH]cn1)NC(=O)[C@H](Cc1ccccc1)NC(=O)CNC(=O)[C@H](CCCNC(=N)N)NC(=O)[C@H](CCCNC(=N)N)NC(=O)CNC(=O)[C@H](CCCCN)NC(=O)[C@@H]1CCCN1C(=O)CNC(=O)[C@@H]1C[C@@H](O)CN1C(=O)[C@@H]1CCCN1C(=O)CNC(=O)[C@@H]1C[C@@H](O)CN1C(=O)[C@@H]1CCCN1C(=O)CNC(=O)[C@@H]1C[C@@H](O)CN1C(=O)[C@@H]1CCCN1C(=O)CNC(=O)[C@@H]1C[C@@H](O)CN1C(=O)[C@@H]1CCCN1C(=O)[C@@H](N)Cc1ccc(O)cc1)C(=O)N1C[C@H](O)C[C@H]1C(=O)NCC(=O)N1CCC[C@H]1C(=O)N1C[C@H](O)C[C@H]1C(=O)NCC(=O)N1CCC[C@H]1C(=O)N1C[C@H](O)C[C@H]1C(=O)NCC(=O)N1CCC[C@H]1C(=O)N1C[C@H](O)C[C@H]1C(=O)NCC(=O)N1CCC[C@H]1C(=O)N1C[C@H](O)C[C@H]1C(=O)NCC(N)=O
notes: as for B3
On to B4, for which the binding result is “binds”.

B5: synthetic triple-helical peptide pep6 (peptide)
chain: YPPGPPGPPGPPGPNGRRGFMGMPGPPGPPGPPGPPG
HELM: PEPTIDE1{Y.P.[Hyp].G.P.[Hyp].G.P.[Hyp].G.P.[Hyp].G.P.N.G.R.R.G.F.M.G.M.[Hyp].G.P.[Hyp].G.P.[Hyp].G.P.[Hyp].G.P.[Hyp].G.[am]}$$$$V2.0; N-terminus assumed
SMILES: CSCC[C@H](NC(=O)[C@H](Cc1ccccc1)NC(=O)CNC(=O)[C@H](CCCNC(=N)N)NC(=O)[C@H](CCCNC(=N)N)NC(=O)CNC(=O)[C@H](CC(N)=O)NC(=O)[C@@H]1CCCN1C(=O)CNC(=O)[C@@H]1C[C@@H](O)CN1C(=O)[C@@H]1CCCN1C(=O)CNC(=O)[C@@H]1C[C@@H](O)CN1C(=O)[C@@H]1CCCN1C(=O)CNC(=O)[C@@H]1C[C@@H](O)CN1C(=O)[C@@H]1CCCN1C(=O)CNC(=O)[C@@H]1C[C@@H](O)CN1C(=O)[C@@H]1CCCN1C(=O)[C@@H](N)Cc1ccc(O)cc1)C(=O)NCC(=O)N[C@@H](CCSC)C(=O)N1C[C@H](O)C[C@H]1C(=O)NCC(=O)N1CCC[C@H]1C(=O)N1C[C@H](O)C[C@H]1C(=O)NCC(=O)N1CCC[C@H]1C(=O)N1C[C@H](O)C[C@H]1C(=O)NCC(=O)N1CCC[C@H]1C(=O)N1C[C@H](O)C[C@H]1C(=O)NCC(=O)N1CCC[C@H]1C(=O)N1C[C@H](O)C[C@H]1C(=O)NCC(N)=O
notes: as for B3
With B5, the binding result is listed as “binds”.

B6: synthetic triple-helical peptide pep10 (peptide)
chain: YPPGPPGPPGPPGPRGPRGFTGFPGPPGPPGPPGPPG
HELM: PEPTIDE1{Y.P.[Hyp].G.P.[Hyp].G.P.[Hyp].G.P.[Hyp].G.P.R.G.P.R.G.F.T.G.F.[Hyp].G.P.[Hyp].G.P.[Hyp].G.P.[Hyp].G.P.[Hyp].G.[am]}$$$$V2.0; N-terminus assumed
SMILES: C[C@@H](O)[C@H](NC(=O)[C@H](Cc1ccccc1)NC(=O)CNC(=O)[C@H](CCCNC(=N)N)NC(=O)[C@@H]1CCCN1C(=O)CNC(=O)[C@H](CCCNC(=N)N)NC(=O)[C@@H]1CCCN1C(=O)CNC(=O)[C@@H]1C[C@@H](O)CN1C(=O)[C@@H]1CCCN1C(=O)CNC(=O)[C@@H]1C[C@@H](O)CN1C(=O)[C@@H]1CCCN1C(=O)CNC(=O)[C@@H]1C[C@@H](O)CN1C(=O)[C@@H]1CCCN1C(=O)CNC(=O)[C@@H]1C[C@@H](O)CN1C(=O)[C@@H]1CCCN1C(=O)[C@@H](N)Cc1ccc(O)cc1)C(=O)NCC(=O)N[C@@H](Cc1ccccc1)C(=O)N1C[C@H](O)C[C@H]1C(=O)NCC(=O)N1CCC[C@H]1C(=O)N1C[C@H](O)C[C@H]1C(=O)NCC(=O)N1CCC[C@H]1C(=O)N1C[C@H](O)C[C@H]1C(=O)NCC(=O)N1CCC[C@H]1C(=O)N1C[C@H](O)C[C@H]1C(=O)NCC(=O)N1CCC[C@H]1C(=O)N1C[C@H](O)C[C@H]1C(=O)NCC(N)=O
notes: as for B3
Regarding B6, the binding result is recorded as “binds”.

B7: synthetic triple-helical peptide pep3 (peptide)
chain: YPPGPPGPPGPPGPRGHRGFLGLPGPPGPPGPPGPPG
HELM: PEPTIDE1{Y.P.[Hyp].G.P.[Hyp].G.P.[Hyp].G.P.[Hyp].G.P.R.G.H.R.G.F.L.G.L.[Hyp].G.P.[Hyp].G.P.[Hyp].G.P.[Hyp].G.P.[Hyp].G.[am]}$$$$V2.0; N-terminus assumed
SMILES: CC(C)C[C@H](NC(=O)[C@H](Cc1ccccc1)NC(=O)CNC(=O)[C@H](CCCNC(=N)N)NC(=O)[C@H](Cc1c[nH]cn1)NC(=O)CNC(=O)[C@H](CCCNC(=N)N)NC(=O)[C@@H]1CCCN1C(=O)CNC(=O)[C@@H]1C[C@@H](O)CN1C(=O)[C@@H]1CCCN1C(=O)CNC(=O)[C@@H]1C[C@@H](O)CN1C(=O)[C@@H]1CCCN1C(=O)CNC(=O)[C@@H]1C[C@@H](O)CN1C(=O)[C@@H]1CCCN1C(=O)CNC(=O)[C@@H]1C[C@@H](O)CN1C(=O)[C@@H]1CCCN1C(=O)[C@@H](N)Cc1ccc(O)cc1)C(=O)NCC(=O)N[C@@H](CC(C)C)C(=O)N1C[C@H](O)C[C@H]1C(=O)NCC(=O)N1CCC[C@H]1C(=O)N1C[C@H](O)C[C@H]1C(=O)NCC(=O)N1CCC[C@H]1C(=O)N1C[C@H](O)C[C@H]1C(=O)NCC(=O)N1CCC[C@H]1C(=O)N1C[C@H](O)C[C@H]1C(=O)NCC(=O)N1CCC[C@H]1C(=O)N1C[C@H](O)C[C@H]1C(=O)NCC(N)=O
notes: as for B3
As to B7, the binding result is “binds”.

B8: synthetic triple-helical peptide pep5 (peptide)
chain: YPPGPPGPPGPPGPRGPRGLTGFPGPPGPPGPPGPPG
HELM: PEPTIDE1{Y.P.[Hyp].G.P.[Hyp].G.P.[Hyp].G.P.[Hyp].G.P.R.G.P.R.G.L.T.G.F.[Hyp].G.P.[Hyp].G.P.[Hyp].G.P.[Hyp].G.P.[Hyp].G.[am]}$$$$V2.0; N-terminus assumed
SMILES: CC(C)C[C@H](NC(=O)CNC(=O)[C@H](CCCNC(=N)N)NC(=O)[C@@H]1CCCN1C(=O)CNC(=O)[C@H](CCCNC(=N)N)NC(=O)[C@@H]1CCCN1C(=O)CNC(=O)[C@@H]1C[C@@H](O)CN1C(=O)[C@@H]1CCCN1C(=O)CNC(=O)[C@@H]1C[C@@H](O)CN1C(=O)[C@@H]1CCCN1C(=O)CNC(=O)[C@@H]1C[C@@H](O)CN1C(=O)[C@@H]1CCCN1C(=O)CNC(=O)[C@@H]1C[C@@H](O)CN1C(=O)[C@@H]1CCCN1C(=O)[C@@H](N)Cc1ccc(O)cc1)C(=O)N[C@H](C(=O)NCC(=O)N[C@@H](Cc1ccccc1)C(=O)N1C[C@H](O)C[C@H]1C(=O)NCC(=O)N1CCC[C@H]1C(=O)N1C[C@H](O)C[C@H]1C(=O)NCC(=O)N1CCC[C@H]1C(=O)N1C[C@H](O)C[C@H]1C(=O)NCC(=O)N1CCC[C@H]1C(=O)N1C[C@H](O)C[C@H]1C(=O)NCC(=O)N1CCC[C@H]1C(=O)N1C[C@H](O)C[C@H]1C(=O)NCC(N)=O)[C@@H](C)O
notes: as for B3
With B8, the binding result is listed as “binds”.
